Patent publication US11807881B2, “Polypeptide, fusion polypeptide, and antibiotic against gram-negative bacteria comprising same” (priority 2020, dated 2023)

Experiments:
A. baumannii = test: MIC and MBC, broth microdilution in CAA media; assay type: cell-based
Protocol: (§1) In addition, MIC (Minimal Inhibitory Concentration) and MBC (Minimal Bactericidal Concentration) of the fusion polypeptide LNT103 were measured. […] Specifically, the LNT103 was treated at a concentration of 64 μg/ml to a 96 well microplate row A, and the LNT103 was treated at a concentration where serial dilution was performed by ½ in rows B-G. To the row H, LNT103 was not treated. After that, the corresponding bacterium strain (type or QC, CCARM and clinical separation strain; See Tables 2-4) was treated in an amount of 5×10^5 CFU/ml, total 100 μl in all wells. Then, it was cultured at 37° C. for 18 hours. MIC was determined to be the lowest concentration at which no colonies were identified by confirming the number of the colonies in each well.

E. coli = test: MIC and MBC, broth microdilution in CAA media; assay type: cell-based
Protocol: as §1

P. aeruginosa = test: MIC and MBC, broth microdilution in CAA media; assay type: cell-based
Protocol: as §1

[1] = test system: Acinetobacter baumannii (ATCC 19606); test: FIC index, combination of colistin and LNT103; assay type: cell-based; conditions: LNT103 in combination with colistin (polymyxin E)
Protocol: The synergy effect of killing ability against gram negative bacterium by combination treatment of a polymyxin-based antibiotic having a mechanism acting on the cell membrane of bacterium and the fusion polypeptide LNT103 was confirmed. Specifically, colistin (polymyxin E) of […] was treated to a 96 well microplate column 1, and it was treated at a concentration where serial dilution was performed by ½ in columns 2-11. The LNT103 of 16 μg/ml was treated to row A, and it was treated at a concentration where serial dilution was performed by ½ in rows B-G. After that, Acinetobacter baumannii (ATCC 19606) was treated in an amount of 5×10^5 CFU/ml, total 100 μl in all wells. Then, it was cultured at 37° C. for 18 hours, and the FIC (Fractional Inhibitory Concentration) index value was calculated by the following equation: FIC index=FICA+FICB=(CA/MICA)+(CB/MICB)
(CA and CB are each concentration of substances treated in combination (polymyxin E and LNT103), and MICA and MICB are MIC of single drug,
FIC value: synergy effect <0.5; antagonism >4; additive 0.5-4)

[2] = test system: Acinetobacter baumannii ATCC 19606; test: Acinetobacter baumannii systemic infection mouse model, viability; assay type: in vivo; conditions: ICR male mice; LNT103 20 mpk and 100 mpk, subcutaneous injection 1 hour and 4 hours after infection; comparative colistin 20 mpk
Protocol: For in vivo effectivity evaluation of the fusion polypeptide LNT103, the viability was confirmed in an Acinetobacter baumannii ATCC 19606 systemic infection mouse model was confirmed.
The process of progressing an animal experiment was as follows. Mice were used when ICR male 4-week-old mice were purchased and a one-week adaptation period was passed, and the weight was 20˜21 g at 5-6 weeks of age. The Acinetobacter bacteria were mixed with 10% mucin at 1:1, and 0.5 ml of 2×10^8 CFU/ml (5% mucin) of the bacterial solution was inoculated intraperitoneally into mice. In 1 hour and 4 hours after infection, LNT103 20 mpk and LNT103 100 mpk, and colistin 20 mpk as a comparative group were administered, respectively, through a subcutaneous injection.

[3] = A. baumannii 643(Kyungpook National University)
[4] = A. baumannii 3680(Gyeongsang National University)

B1: LNT103: fusion polypeptide [Cecropin A]-[linker (GSGSGS)]-[endolysin LNT102]; SEQ ID NO: 15 (MAS, His tag) used in the tests (protein)
chain: MASKWKLFKKIEKVGQNIRDGIIKAGPAVAVVGQATQIAKGSGSGSMGTVLKRGDRGSAVEDLQMKLNVAGYNLSADGIFGGDTEKAVRDVQAGAGLVVDGKVGPKTLYAIAKSATVPAKWEAIPFPTANKSRSAAMPTLNAVGAMTGVDSRLLATFASIESAFDYTVKAKTSSATGWFQFLDATWDDMIKAYGSKYGIPKDPTRALRKDPRANALMGAEFIKGNAAVLRPVINREPSDTDLYLAHFLGAGGAKKFLSADQKTLGEVLFPKPAKANPSIFSNKGVPRTLAEIYKLFEDKVSKHRALEHHHHHH
modifications: synthetic_Fusion Polypeptide LNT103 with MAS, His tag, and extra sequence
- MBC (A. baumannii; [3]): 16 µg/mL
- MIC (A. baumannii; [3]): 8 µg/mL
- MBC (A. baumannii; [4]): 8 µg/mL
- MIC (A. baumannii; [4]): 8 µg/mL
- MBC (A. baumannii; A. baumannii ATCC 17978): 8 µg/mL
- MIC (A. baumannii; A. baumannii ATCC 17978): 8 µg/mL
- MBC (A. baumannii; A. baumannii ATCT 19606): 8 µg/mL
- MIC (A. baumannii; A. baumannii ATCT 19606): 8 µg/mL
- MBC (A. baumannii; A. baumannii CCARM 12001): 8 µg/mL
- MIC (A. baumannii; A. baumannii CCARM 12001): 8 µg/mL
- MBC (A. baumannii; A. baumannii CCARM 12015): 16 µg/mL
- MIC (A. baumannii; A. baumannii CCARM 12015): 16 µg/mL
- MBC (A. baumannii; A. baumannii CCARM 12026): 8 µg/mL
- MIC (A. baumannii; A. baumannii CCARM 12026): 8 µg/mL
- MBC (A. baumannii; A. baumannii CCARM 12035): 8 µg/mL
- MIC (A. baumannii; A. baumannii CCARM 12035): 8 µg/mL
- MBC (A. baumannii; A. baumannii CCARM 12202): 8 µg/mL
- MIC (A. baumannii; A. baumannii CCARM 12202): 8 µg/mL
- MBC (A. baumannii; A. baumannii F4): 16 µg/mL
- MIC (A. baumannii; A. baumannii F4): 16 µg/mL
- MBC (A. baumannii; A. baumannii F15): 8 µg/mL
- MIC (A. baumannii; A. baumannii F15): 8 µg/mL
- MBC (A. baumannii; A. baumannii F65): 4 µg/mL
- MIC (A. baumannii; A. baumannii F65): 4 µg/mL
- MBC (A. baumannii; A. baumannii F66): 4 µg/mL
- MIC (A. baumannii; A. baumannii F66): 4 µg/mL
- MBC (A. baumannii; A. baumannii F67): 8 µg/mL
- MIC (A. baumannii; A. baumannii F67): 8 µg/mL
- MBC (A. baumannii; A. baumannii F68): 4 µg/mL
- MIC (A. baumannii; A. baumannii F68): 4 µg/mL
- MBC (A. baumannii; A. baumannii F69): 8 µg/mL
- MIC (A. baumannii; A. baumannii F69): 8 µg/mL
- MBC (A. baumannii; A. baumannii F70): 16 µg/mL
- MIC (A. baumannii; A. baumannii F70): 16 µg/mL
- MBC (A. baumannii; A. baumannii F71): 8 µg/mL
- MIC (A. baumannii; A. baumannii F71): 8 µg/mL
- MBC (A. baumannii; A. baumannii KACC 13090): 8 µg/mL
- MIC (A. baumannii; A. baumannii KACC 13090): 8 µg/mL
- MBC (A. baumannii; A. baumannii KACC 14233): 8 µg/mL
- MIC (A. baumannii; A. baumannii KACC 14233): 8 µg/mL
- MBC (E. coli; E. coli ATCC 8739): 8 µg/mL
- MIC (E. coli; E. coli ATCC 8739): 8 µg/mL
- MBC (E. coli; E. coli CCARM 1A746): 8 µg/mL
- MIC (E. coli; E. coli CCARM 1A746): 8 µg/mL
- MBC (E. coli; E. coli CCARM 1B684): 8 µg/mL
- MIC (E. coli; E. coli CCARM 1B684): 4 µg/mL
- MBC (E. coli; E. coli CCARM 1G448): 4 µg/mL
- MIC (E. coli; E. coli CCARM 1G448): 4 µg/mL
- MBC (E. coli; E. coli CCARM 1460): 4 µg/mL
- MIC (E. coli; E. coli CCARM 1460): 4 µg/mL
- MBC (E. coli; E. coli F340): 16 µg/mL
- MIC (E. coli; E. coli F340): 16 µg/mL
- MBC (E. coli; E. coli F481): 8 µg/mL
- MIC (E. coli; E. coli F481): 8 µg/mL
- MBC (E. coli; E. coli F485): 8 µg/mL
- MIC (E. coli; E. coli F485): 4 µg/mL
- MBC (E. coli; E. coli F524): 16 µg/mL
- MIC (E. coli; E. coli F524): 16 µg/mL
- MBC (E. coli; E. coli F716): 32 µg/mL
- MIC (E. coli; E. coli F716): 16 µg/mL
- MBC (E. coli; E. coli F852): 32 µg/mL
- MIC (E. coli; E. coli F852): 16 µg/mL
- MBC (E. coli; E. coli F859): 32 µg/mL
- MIC (E. coli; E. coli F859): 32 µg/mL
- MBC (E. coli; E. coli F862): 4 µg/mL
- MIC (E. coli; E. coli F862): 4 µg/mL
- MBC (E. coli; E. coli FORC81): 4 µg/mL
- MIC (E. coli; E. coli FORC81): 4 µg/mL
- MBC (E. coli; E. coli UPEC 3042): 32 µg/mL
- MIC (E. coli; E. coli UPEC 3042): 32 µg/mL
- MBC (E. coli; E. coli UPEC 3181): 8 µg/mL
- MIC (E. coli; E. coli UPEC 3181): 8 µg/mL
- MBC (P. aeruginosa; P. aeruginosa ATCC 9027): 16 µg/mL
- MIC (P. aeruginosa; P. aeruginosa ATCC 9027): 16 µg/mL
- MBC (P. aeruginosa; P. aeruginosa ATCC 10145): 32 µg/mL
- MIC (P. aeruginosa; P. aeruginosa ATCC 10145): 16 µg/mL
- MBC (P. aeruginosa; P. aeruginosa ATCC 15522): 16 µg/mL
- MIC (P. aeruginosa; P. aeruginosa ATCC 15522): 16 µg/mL
- MBC (P. aeruginosa; P. aeruginosa ATCT 13388): 16 µg/mL
- MIC (P. aeruginosa; P. aeruginosa ATCT 13388): 8 µg/mL
- MBC (P. aeruginosa; P. aeruginosa CCARM 2134): 16 µg/mL
- MIC (P. aeruginosa; P. aeruginosa CCARM 2134): 8 µg/mL
- MBC (P. aeruginosa; P. aeruginosa CCARM 2144): 32 µg/mL
- MIC (P. aeruginosa; P. aeruginosa CCARM 2144): 32 µg/mL
- MBC (P. aeruginosa; P. aeruginosa F102): 8 µg/mL
- MIC (P. aeruginosa; P. aeruginosa F102): 8 µg/mL
- MBC (P. aeruginosa; P. aeruginosa F141): 8 µg/mL
- MIC (P. aeruginosa; P. aeruginosa F141): 8 µg/mL
- MBC (P. aeruginosa; P. aeruginosa F265): 16 µg/mL
- MIC (P. aeruginosa; P. aeruginosa F265): 16 µg/mL
- MBC (P. aeruginosa; P. aeruginosa F341): 8 µg/mL
- MIC (P. aeruginosa; P. aeruginosa F341): 8 µg/mL
- MBC (P. aeruginosa; P. aeruginosa F388): 8 µg/mL
- MIC (P. aeruginosa; P. aeruginosa F388): 8 µg/mL
- MBC (P. aeruginosa; P. aeruginosa PAO1(ATCC 15692)): 16 µg/mL
- MIC (P. aeruginosa; P. aeruginosa PAO1(ATCC 15692)): 8 µg/mL
- FIC index value ([1]; 5×10^5 CFU/ml, 37° C. 18 hours): 0.375
- interaction of the two substances by FIC index ([1]; synergy effect <0.5): there was a synergy effect between the two substances
- viability for 96 hours [2]: higher viability compared to the non-administration group (control) and comparative group (colistin administration group)
